This is an account of results in patent publication US9388406B2, “System useful for reporting protein-protein interactions in the bacterial periplasm” (Cornell University, priority 2008, dated 2016).

Test [1] concerns the target T1, Jun (Homo sapiens, UniProt P05412). The note with it: Fos/Jun leucine zippers; Pernelle et al. 1993; cited from earlier work.
Test [2] deals with T1, Jun. Briefly: split β-lactamase protein complementation assay in the periplasm, spot plating on ampicillin, Fos/Jun leucine zippers. The test is classed as cell-based. The note with it: Fos on ω fragment, Jun on α fragment of Bla; negative control GCN4. Here is the method: (§1) E. coli MC4100 cells were co-transformed with plasmids pDMB-P1-ωBLA (CmR) and aGS-P2 (KanR), where P1 and P2 represent proteins of interest. Cells were grown overnight at 37° C. in LB medium containing 20 μg/mL chloramphenicol (Cm) and 50 μg/mL kanamycin (Kan). Screening of cells on LB agar was performed by first normalizing overnight cultures by OD600 and then spotting 5 μL, of serially diluted (10-10^6-fold) cells on LB agar plates with […] of ampicillin (Amp). In all cases, the plates were incubated 16 h at 37° C. and then imaged using a ChemiDoc System (BioRad). […] The minimum bacteriocidal concentration was determined as the minimum Amp concentration at which no colonies appeared on the plates.
(§2) It was hypothesized that detecting protein interactions in the periplasm can be used to engineer antibody fragments with in vivo activity in the periplasm. […] The approach used in the present invention was to fuse known interacting protein domains to genes encoding two split β-lactamase fragments using a two-plasmid system (Wehrman, T., et al., “Protein-protein Interactions Monitored in Mammalian Cells Via Complementation of Beta-lactamase Enzyme Fragments,” Proc Natl Acad Sci USA 99:3469-3474 (2002), which is hereby incorporated by reference in its entirety)(see FIG. 2A). […]

The next test concerns scFv-GCN4. Put plainly: split β-lactamase protein complementation assay in the periplasm, MBC on ampicillin, scFv-GCN4 with antigen. The note with it: E. coli MC4100; antigen on α Bla fragment paired with scFv-GCN4; versus α-Jun negative control. The test is classed as cell-based. On the procedure: as §1, §2

T1 sequence (P05412 280-308 limits assumed, species assumed): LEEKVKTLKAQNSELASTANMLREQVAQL

B1: Fos: Fos leucine zipper, fused to the ω fragment of β-lactamase; interacts with Jun (protein)
chain: LQAETDQLEDEKSALQTEIANLLKEKEKLGGGGSGGGGSGGGGSNGRTLASRQQLIDWMEADKVAGPLLRSALPAGWFIADKSGAGERGSRGIIAALGPDGKPSRIVVIYTTGSQATMDERNRQIAEIGASLIKHW
For B1, in the test with Jun [1], the “KD of their interaction” value was “nanomolar range”. In addition, in the test with Jun [2], the “ampicillin activity in the PCA” value is given as “well above that of the negative control”.

B2: GCN4-PP: double proline mutant of the GCN4 leucine zipper with reduced homodimerization, antigen of scFv-GCN4 (protein)
chain: HPETLVKVKDAEDQLGARVGYIELDLNSGKILESFRPEERFPMMSTFKVLLCGAVLSRVDAGQEQLGRRIHYSQNDLVEYSPVTEKHLTDGMTVRELCSAAITMSDNTAANLLLTTIGGPKELTAFLHNMGDHVTRLDRWEPELNEAIPNDERDTTMPAAMATTLRKLLTGELLEPKVEELLPKNYHLENEVARL
modifications: left off: small tags and cut ends
For the molecule B2, the “higher MBC (minimum bacteriocidal concentration) on ampicillin” value in the test with scFv-GCN4 is reported as 16 fold.
